To fix the notation:
T1: mouse CD117 (mouse, UniProt P05532)
T1 construct: antigen of the Carterra SPR kinetics; also called murine CD117
T1 sequence (receptor, looked up): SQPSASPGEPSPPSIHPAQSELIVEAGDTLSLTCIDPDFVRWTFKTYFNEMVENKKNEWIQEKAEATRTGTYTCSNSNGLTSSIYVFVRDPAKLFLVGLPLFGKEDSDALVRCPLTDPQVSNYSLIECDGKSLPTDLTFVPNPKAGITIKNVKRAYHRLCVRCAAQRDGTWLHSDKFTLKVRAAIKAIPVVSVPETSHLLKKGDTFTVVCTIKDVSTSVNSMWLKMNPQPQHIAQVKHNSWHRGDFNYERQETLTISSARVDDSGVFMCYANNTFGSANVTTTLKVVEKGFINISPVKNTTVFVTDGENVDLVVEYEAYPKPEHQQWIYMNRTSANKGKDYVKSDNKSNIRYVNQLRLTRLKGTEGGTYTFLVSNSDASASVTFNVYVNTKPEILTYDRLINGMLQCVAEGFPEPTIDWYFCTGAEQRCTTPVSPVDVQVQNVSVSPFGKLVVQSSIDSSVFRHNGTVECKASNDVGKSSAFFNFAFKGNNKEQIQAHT

B1: CD117-11 (antibody, human IgG1, kappa, V domains shown)
VH: EVQLLESGGGLVQPGGSLRLSCAASGFTFGNFAMSWVRQAPGKGLEWVSLISGSGGNTYYADSVKGRFTISRDNSKNTLYLQMNSLRAEDTAVYYCARGDGVNGFDYWGQGTLVTVSS
VL: DIQMTQSPSSLSASVGDRVTITCRASQSIPTYLNWYQQKPGKAPKLLIYATSTLESGVPSRFSGSGSGTDFTLTISSLQPEDFATYYCQQTYSTPYTFGGGTKVEIKR
notes: detected with anti-human IgG in FACS
B2: CD117-10 (antibody, human IgG1, kappa, V domains shown)
VH: EVQLLESGGGLVQPGGSLRLSCAASGFIFSSYAMTWVRQAPGKGLEWVSSISGRGGNTYYADSVKGRFTISRDNSKNTLYLQMNSLRAEDTAVYYCAKMMDDFYDAFNMWGQGTLVTVSS
VL: B1 VL with P30R, A50D, T51A, T53S, T91S, Y92F, S93T
notes: as for B1
B3: CD117-9 (antibody, human IgG1, kappa, V domains shown)
VH: EVQLLESGGGLVQPGGSLRLSCAASGFSFTNYAMSWVRQAPGKGLEWVSSISGSGGSTYYADSVKGRFTISRDNSKNTLYLQMNSLRAEDTAVYYCARGSGSYFGFDFWGQGTLVTVSS
VL: B1 VL with S28G, P30G, T51A, T53S, E55Q, S56P, T91S, S93R, T94P, Y96F
notes: as for B1
B4: CD117-20 (antibody, human IgG1, kappa, V domains shown)
VH: EVQLLESGGGLVQPGGSLRLSCAASGFTFSSDAMNWVRQAPGKGLEWVSGISGSGGYTYYADSVKGRFTISRDNSKNTLYLQMNSLRAEDTAVYYCARSGNVVGDGMDVWGQGTLVTVSS
VL: B1 VL with S28N, P30R, T31R, A50D, T51A, T91S, Y92H, S93T, Y96L
notes: as for B1
B5: CD117-12 (antibody, human IgG1, kappa, V domains shown)
VH: EVQLLESGGGLVQPGGSLRLSCAASGITFSSYAMTWVRQAPGKGLEWVSAISSSGTGTYYADSVKGRFTISRDNSKNTLYLQMNSLRAEDTAVYYCARERAPKDFGSSGYSFDYWGQGTLVTVSS
VL: B1 VL with P30D, T31I, A50K, T51A, T53S, E55Q, T91S, S93T, T94V, Y96I
notes: as for B1
B6: CD117-18 (antibody, human IgG1, kappa, V domains shown)
VH: EVQLLESGGGLVQPGGSLRLSCAASGFTFSDYSMNWVRQAPGKGLEWVSAITGSGGNTFYADSVKGRFTISRDNSKNTLYLQMNSLRAEDTAVYYCARSNYEQDVFDIWGQGTLVTVSS
VL: B1 VL with S28T, P30Y, T31R, A50D, T51A, T53D, E55Q, T91S, T94I, Y96I
notes: as for B1
B7: CD117-5 (antibody, human IgG1, kappa, V domains shown)
VH: EVQLLESGGGLVQPGGSLRLSCAASGFIFTNYAMSWVRQAPGKGLEWVSAIGGSGSSTYYADSVKGRFTVSRDNSKNTLYLQMNSLRAEDTAVYYCVKGGYSYGDSFDFWGQGTLVTVSS
VL: B1 VL with I29V, P30R, T31N, A50D, T51A, T53D, E55Q, T91G, Y96W
notes: as for B1
B8: CD117-17 (antibody, human IgG1, kappa, V domains shown)
VH: EVQLLESGGGLVQPGGSLRLSCAASGFTFSDYPMSWVRQAPGKGLEWVSAIGGSGGDTYYADSVKGRFTISRDNSKNTLYLQMNSLRAEDTAVYYCARGAYDGEGFDYWGQGTLVTVSS
VL: B1 VL with S28T, P30S, T31G, A50D, T51A, E55Q, S56R, T91N, S93R, Y96F
notes: as for B1
B9: CD117-19 (antibody, human IgG1, kappa, V domains shown)
VH: EVQLLESGGGLVQPGGSLRLSCAASGFSFSSYAMSWVRQAPGKGLEWVSAISGTGGNTYYADSVKGRFTISRDNSKNTLYLQMNSLRAEDTAVYYCARRNDFWSDAFDIWGQGTLVTVSS
VL: B1 VL with S28N, P30Y, A50D, T51A, T53S, E55H, T91S, T94S, P95S, Y96I
notes: as for B1
B10: CD117-13 (antibody, human IgG1, kappa, V domains shown)
VH: EVQLLESGGGLVQPGGSLRLSCAASGFTLTSYAMSWVRQAPGKGLEWVSTISGSGGYTYYADSVKGRFTISRDNSKNTLYLQMNSLRAEDTAVYYCARDSGYDRGLDYWGQGTLVTVSS
VL: B1 VL with S28N, P30Y, A50D, T51A, T53S, E55H, T91S, Y92S
notes: as for B1
B11: CD117-8 (antibody, human IgG1, kappa, V domains shown)
VH: B10 VH
VL: B1 VL with I29V, P30R, A50D, T51A, E55Q, T91S, S93N, Y96L, T97A
notes: as for B1
B12: CD117-4 (antibody, human IgG1, kappa, V domains shown)
VH: EVQLLESGGGLVQPGGSLRLSCAASGFTFSRSAMSWVRQAPGKGLEWVSAISAGGGNTYYADSVKGRFTISRDNSKNTLYLQMNSLRAEDTAVYYCAREQDLWSGTFDYWGQGTLVTVSS
VL: B1 VL with S26R, P30S, T31S, A50D, T51A, T53S, E55R, T91S, S93K, Y96W
notes: as for B1

Positions count from the first letter of the chain named.

For the first assay, the target named is T2, cyno CD117 (Macaca fascicularis, UniProt A0A7N9CP24).
T2 construct: antigen of the Carterra SPR kinetics; also called cynomolgus monkey CD117
T2 sequence (A0A7N9CP24 entry or part of it): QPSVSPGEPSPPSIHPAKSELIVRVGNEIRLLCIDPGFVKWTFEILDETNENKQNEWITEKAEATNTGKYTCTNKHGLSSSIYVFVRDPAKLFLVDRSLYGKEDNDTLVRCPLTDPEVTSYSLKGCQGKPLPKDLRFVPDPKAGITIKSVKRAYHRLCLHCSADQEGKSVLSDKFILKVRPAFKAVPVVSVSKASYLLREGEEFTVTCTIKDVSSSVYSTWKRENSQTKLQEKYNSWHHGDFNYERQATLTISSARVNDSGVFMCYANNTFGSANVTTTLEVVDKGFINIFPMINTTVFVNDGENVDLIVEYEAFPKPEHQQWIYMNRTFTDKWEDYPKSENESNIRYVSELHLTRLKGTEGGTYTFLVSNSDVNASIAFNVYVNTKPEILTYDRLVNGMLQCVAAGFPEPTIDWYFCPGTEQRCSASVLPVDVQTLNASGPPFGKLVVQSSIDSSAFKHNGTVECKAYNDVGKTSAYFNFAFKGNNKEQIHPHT
Description: Carterra SPR, cyno CD117. As to the method:
(§1) To further evaluate the antibodies discovered during the screens, 21 clones were selected for detailed characterization and were analyzed for target binding kinetics by a Carterra SPR instrument. The binding kinetics of the anti-CD117 antibodies for human CD117, cynomolgus monkey CD117, and murine CD117 are shown in FIG. 29A-29B.
As usually defined, the Kd is a measure of binding affinity in units of concentration. As a reminder, the koff is a measure of how fast the partners let go of each other. Higher therefore signals fast dissociation. What is called kon is a measure of how fast the partners come together. A low value points to slow association. Molecule B1 came in with a Kd of 338 nM, a koff of 0.0681 s⁻¹ and a kon of 201000 M⁻¹ s⁻¹.
In turn, B2 gave a Kd of 26600 nM, a koff of 0.916 s⁻¹ and a kon of 34400 M⁻¹ s⁻¹.
In the same order, the values of B3 are 15.7 nM, 0.0108 s⁻¹ and 685000 M⁻¹ s⁻¹.
Turning to B4, the affinity, expressed as Kd, was 4120 nM; the koff came to 0.298 s⁻¹; the kon turned out to be 72200 M⁻¹ s⁻¹.
Molecule B5 yielded a Kd of 5190 nM, a koff of 0.201 s⁻¹ and a kon of 38700 M⁻¹ s⁻¹.
On to B6, for which the Kd came out at 5.02 nM, the koff was found to be 0.00679 s⁻¹ and the kon came to 1.35e+06 M⁻¹ s⁻¹.
On the same counts, the results for B7 are 2390 nM, 0.211 s⁻¹ and 88300 M⁻¹ s⁻¹.
The molecule B8 displayed a Kd of 92.6 nM, a koff of 0.0673 s⁻¹ and a kon of 727000 M⁻¹ s⁻¹.
For B9, the Kd turned out to be 20.8 nM, the koff is 0.0272 s⁻¹ and the on-rate constant (kon) is 1.31e+06 M⁻¹ s⁻¹.
On the same counts, the results for B10 are 480 nM, 0.156 s⁻¹ and 324000 M⁻¹ s⁻¹.

In a further assay the target is T3, Cluster of differentiation 117 (CD117), antigen of epitope binning and ELISA (UniProt P10721 26-520, limits assumed).
T3 construct: also called tyrosine-protein kinase KIT; mast/stem cell growth factor receptor (SCFR)
T3 sequence (P10721 26-520 limits assumed): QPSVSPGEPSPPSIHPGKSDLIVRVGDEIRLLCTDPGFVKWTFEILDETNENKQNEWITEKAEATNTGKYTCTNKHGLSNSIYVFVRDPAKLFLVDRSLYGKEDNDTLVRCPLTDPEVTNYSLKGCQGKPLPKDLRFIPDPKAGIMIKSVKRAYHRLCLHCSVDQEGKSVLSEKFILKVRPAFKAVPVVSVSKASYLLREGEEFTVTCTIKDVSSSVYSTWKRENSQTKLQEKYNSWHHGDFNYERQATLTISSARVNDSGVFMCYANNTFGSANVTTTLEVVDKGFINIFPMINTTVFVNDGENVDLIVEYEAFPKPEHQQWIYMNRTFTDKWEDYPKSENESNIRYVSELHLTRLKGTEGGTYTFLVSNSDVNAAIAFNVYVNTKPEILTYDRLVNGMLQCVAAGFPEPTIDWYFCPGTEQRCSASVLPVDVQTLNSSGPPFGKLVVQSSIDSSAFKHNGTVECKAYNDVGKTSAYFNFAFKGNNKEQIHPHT
Description: Carterra SPR, human CD117. As to the method: as §1
In the case of B11, the binding result was “no binding”.
Regarding B1, binding was put at a Kd of 270 nM, the koff was 0.0679 s⁻¹ and the kon was found to be 252000 M⁻¹ s⁻¹.
On to B2, for which the binding result is given as “no binding”.
In the case of B3, the Kd was determined as 9.51 nM, the dissociation rate constant (koff) amounted to 0.0058 s⁻¹ and the kon stood at 610000 M⁻¹ s⁻¹.
For the molecule B4, the binding result was “no binding”.
B5 had a Kd of 187 nM, a koff of 0.101 s⁻¹ and a kon of 541000 M⁻¹ s⁻¹.
B12: the binding result was “no binding”.
With B6, binding was put at a Kd of 2.53 nM, the koff stood at 0.00336 s⁻¹ and the kon amounted to 1.33e+06 M⁻¹ s⁻¹.
On the same counts, the results for B7 are 670 nM, 0.201 s⁻¹ and 300000 M⁻¹ s⁻¹.
In the same order, the values of B8 are 3 nM, 0.00406 s⁻¹ and 1.35e+06 M⁻¹ s⁻¹.
Consider B9, for which the Kd amounted to 5.87 nM, the koff was 0.00388 s⁻¹ and the kon was 662000 M⁻¹ s⁻¹.
Molecule B10 showed a Kd of 5.17 nM, a koff of 0.00877 s⁻¹ and a kon of 1.7e+06 M⁻¹ s⁻¹.

For another assay, the target named is T1, mouse CD117. Put plainly: Carterra SPR, mouse CD117. As to the method:
as §1
Consider B1, for which the binding result was “no binding”.
Still for that read-out and setting: the entry for B2 is “no binding”; for B3 it is “no binding”.
On the same count and under the same terms, the entry for B4 is “no binding”; for B5 it is “no binding”.
Consider B6, for which the binding result is “no binding”.
B7: the binding result is on record as “no binding”.
On the same count and under the same terms, the entry for B8 is “no binding”.
Take B9: the binding result is “no binding”.
On the same count and under the same terms, next, B10: “no binding”.

The next assay deals with T4, CD117 transiently expressed on Expi293 cells (UniProt P10721 26-976, limits assumed).
T4 construct: whole, on cells; Two cassettes are described (P2A mVenus and direct mVenus fusion); also called CD117 transient cells; the transient cell line
T4 sequence (P10721 26-976 limits assumed): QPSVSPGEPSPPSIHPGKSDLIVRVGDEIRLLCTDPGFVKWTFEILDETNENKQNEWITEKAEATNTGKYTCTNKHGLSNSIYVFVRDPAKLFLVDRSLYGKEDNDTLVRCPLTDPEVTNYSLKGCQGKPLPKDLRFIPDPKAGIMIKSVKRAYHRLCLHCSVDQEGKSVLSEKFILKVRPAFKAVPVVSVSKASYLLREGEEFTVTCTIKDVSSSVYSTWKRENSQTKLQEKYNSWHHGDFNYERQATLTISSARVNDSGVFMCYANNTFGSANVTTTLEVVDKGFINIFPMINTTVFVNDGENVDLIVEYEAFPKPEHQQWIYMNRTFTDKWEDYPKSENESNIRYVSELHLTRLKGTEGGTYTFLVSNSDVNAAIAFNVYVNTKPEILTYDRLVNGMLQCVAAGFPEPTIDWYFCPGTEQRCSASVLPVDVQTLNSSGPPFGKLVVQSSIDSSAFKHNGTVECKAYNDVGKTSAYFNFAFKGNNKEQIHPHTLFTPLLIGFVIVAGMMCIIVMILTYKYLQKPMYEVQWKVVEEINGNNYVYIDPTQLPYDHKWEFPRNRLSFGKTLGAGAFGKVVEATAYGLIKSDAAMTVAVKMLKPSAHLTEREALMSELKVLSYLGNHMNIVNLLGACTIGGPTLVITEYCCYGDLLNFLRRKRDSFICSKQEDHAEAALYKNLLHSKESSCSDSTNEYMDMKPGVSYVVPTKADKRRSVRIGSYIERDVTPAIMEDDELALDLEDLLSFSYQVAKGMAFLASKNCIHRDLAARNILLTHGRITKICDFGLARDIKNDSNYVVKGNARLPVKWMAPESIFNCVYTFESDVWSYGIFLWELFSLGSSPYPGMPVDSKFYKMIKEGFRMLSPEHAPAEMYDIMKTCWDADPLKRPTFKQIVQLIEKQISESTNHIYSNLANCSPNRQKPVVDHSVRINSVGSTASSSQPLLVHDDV
Description: FACS, MFI expressing / parental cells. The protocol: (§2) The transient expression of CD117 was validated with a control antibody, Expi293 (FIGS. 17A-17B). Expi293, […], was transiently transfected with CD117 48-hours post-transfection. The secondary antibody used was APC Goat anti-human IgG (diluted 1:400). 100,000 cells per well were blocked with 1×PBS+0.5% BSA for 1 hour, stained with 100 μL of the primary antibody for 1 hour, and stained with the secondary antibody for one hour, all with 3× washes in between each staining.
Regarding B11, the “MFI Ratio” value was determined as 4.25.
The same measure, in the same setting: the figure for B1 is 17.2.
On the same count and under the same terms, the figure for B2 is 21.2; for B3 it is 29.1; for B4 it is 14.4.
Same read-out and setting: the figure for B5 is 10.6; for B12 it is 10.5; for B6 it is 16.2.
As to B7, the “MFI Ratio” value was 21.3.
For the molecule B8, the “MFI Ratio” value is 20.1.
For B9, the “MFI Ratio” value turned out to be 12.9.
The same measure, in the same setting: the figure for B10 is 18.6.

The target in the next assay is T4, CD117 transiently expressed on Expi293 …. Put plainly: FACS cell binding, Expi293 transiently expressing CD117. As to the method: as §2
By EC50 is commonly meant the concentration that produces a half-maximal response. Low values mean greater potency, high ones weaker potency. As to B11, the midpoint of the response, the EC50, lay at 351 nM.
The same measure, in the same setting: the figure for B1 is 4.31 nM; for B2 it is 91.3 nM; for B3 it is 1.39 nM.
Still for that read-out and setting: the figure for B4 is 6.24 nM.
Still for that read-out and setting: next, B5: 1210 nM; B12: 3.42 nM; B6: 20 nM.
B7 gave a 50% effective concentration (EC50) of 6.88 nM.
For the molecule B8, the EC50 turned out to be 7.58 nM.
Consider B9, for which the EC50 is 3.29 nM.
B10 came in with an EC50 of 11 nM.

These data come from US20260001953A1 (TWIST BIOSCIENCE, published 2026).
